Test system: peptide library, one residue held at a place counted from the S/T acceptor
Assay: relative phosphorylation of the sub-library (ratio to the mean residue at this position); higher = residue favoured
Settings: human
Outline: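 In 384-well plates, purified recombinant kinases (human or orthologue constructs) were incubated for 90 min under kinase-specific conditions with 50 μM biotinylated degenerate peptide sub-libraries and 50 μM ATP spiked with γ-32P-ATP. Each sub-library fixed a single residue at one position around a central Ser/Thr. Relative sub-library phosphorylation, measured by phosphorimaging and densitometry of streptavidin membrane spots, is given as a ratio to the mean residue at that position.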

Sequence of DYRK1B, construct: Full length (Q9Y463 whole entry, looked up): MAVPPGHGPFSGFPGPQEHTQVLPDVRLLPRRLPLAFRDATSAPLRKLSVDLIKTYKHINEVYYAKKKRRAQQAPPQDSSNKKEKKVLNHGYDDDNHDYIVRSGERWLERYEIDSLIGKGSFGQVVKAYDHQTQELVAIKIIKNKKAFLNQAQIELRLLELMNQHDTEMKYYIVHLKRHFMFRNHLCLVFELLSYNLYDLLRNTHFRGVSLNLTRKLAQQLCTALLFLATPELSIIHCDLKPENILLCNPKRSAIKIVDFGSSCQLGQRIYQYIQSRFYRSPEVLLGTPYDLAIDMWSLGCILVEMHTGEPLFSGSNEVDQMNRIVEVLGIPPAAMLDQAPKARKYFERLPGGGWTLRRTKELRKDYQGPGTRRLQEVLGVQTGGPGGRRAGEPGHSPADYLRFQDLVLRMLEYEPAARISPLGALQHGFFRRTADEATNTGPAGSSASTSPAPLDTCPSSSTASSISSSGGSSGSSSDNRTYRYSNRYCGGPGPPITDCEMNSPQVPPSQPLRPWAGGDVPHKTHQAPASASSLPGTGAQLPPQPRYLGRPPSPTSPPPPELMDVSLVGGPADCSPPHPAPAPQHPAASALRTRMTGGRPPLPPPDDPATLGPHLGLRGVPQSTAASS
Sequence of HIPK2, construct: aa153-564 (Q9H2X6 153-564, looked up): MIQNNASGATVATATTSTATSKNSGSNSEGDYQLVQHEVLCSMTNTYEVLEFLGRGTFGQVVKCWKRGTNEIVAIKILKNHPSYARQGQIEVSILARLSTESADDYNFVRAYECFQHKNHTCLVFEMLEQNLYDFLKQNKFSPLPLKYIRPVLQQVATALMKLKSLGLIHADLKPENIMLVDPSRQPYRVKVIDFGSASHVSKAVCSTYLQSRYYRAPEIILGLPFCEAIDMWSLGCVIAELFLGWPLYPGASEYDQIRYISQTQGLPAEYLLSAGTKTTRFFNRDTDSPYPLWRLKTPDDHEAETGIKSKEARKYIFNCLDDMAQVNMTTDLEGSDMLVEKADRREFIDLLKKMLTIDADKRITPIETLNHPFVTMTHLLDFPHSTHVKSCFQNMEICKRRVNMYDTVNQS
Sequence of RPS6KA2, construct: Full length (Q15349 whole entry, looked up): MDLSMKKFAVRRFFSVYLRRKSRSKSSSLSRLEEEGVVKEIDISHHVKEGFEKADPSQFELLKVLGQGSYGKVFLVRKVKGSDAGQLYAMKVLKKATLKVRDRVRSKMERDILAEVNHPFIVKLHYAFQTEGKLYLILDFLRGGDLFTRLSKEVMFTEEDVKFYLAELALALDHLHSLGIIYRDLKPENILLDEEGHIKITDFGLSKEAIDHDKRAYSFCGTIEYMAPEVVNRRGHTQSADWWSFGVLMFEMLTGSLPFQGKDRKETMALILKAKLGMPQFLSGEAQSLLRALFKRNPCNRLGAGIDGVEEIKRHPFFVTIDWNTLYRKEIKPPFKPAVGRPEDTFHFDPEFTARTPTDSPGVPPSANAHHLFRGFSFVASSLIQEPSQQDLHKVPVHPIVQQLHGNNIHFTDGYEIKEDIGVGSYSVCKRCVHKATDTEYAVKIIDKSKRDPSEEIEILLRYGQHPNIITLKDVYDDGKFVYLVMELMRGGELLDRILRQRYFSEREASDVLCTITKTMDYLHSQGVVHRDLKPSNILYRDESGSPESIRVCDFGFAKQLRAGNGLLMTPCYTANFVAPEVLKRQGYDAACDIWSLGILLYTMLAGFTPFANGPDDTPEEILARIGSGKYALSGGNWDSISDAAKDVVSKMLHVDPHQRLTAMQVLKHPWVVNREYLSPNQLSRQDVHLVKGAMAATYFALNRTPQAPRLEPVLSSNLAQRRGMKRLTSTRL

DYRK1B, construct: Full length (from UniProt Q9Y463)
relative phosphorylation
Settings | at +1 | at +2 | at +3 | at +4 | at -1 | at -2 | at -3 | at -4 | at -5
A fixed | 0.436 | 0.893 | 0.7 | 0.79 | 1.08 | 2.23 | 0.812 | 0.901 | 0.902
D fixed | 0.147 | 0.891 | 0.762 | 0.879 | 0.607 | 0.261 | 0.56 | 1.58 | 0.658
E fixed | 0.161 | 0.8 | 0.932 | 0.829 | 0.626 | 0.28 | 0.445 | 0.719 | 0.554
F fixed | 0.182 | 1.26 | 1.04 | 1.68 | 0.605 | 0.346 | 0.407 | 0.645 | 0.816
G fixed | 0.957 | 0.824 | 1 | 0.925 | 1.14 | 0.889 | 1.33 | 0.933 | 1.15
H fixed | 0.249 | 1.16 | 1.37 | 1.11 | 0.926 | 0.456 | 0.748 | 0.837 | 1.23
I fixed | 0.239 | 1.26 | 0.987 | 1.14 | 0.495 | 0.727 | 0.32 | 0.607 | 0.956
K fixed | 0.469 | 0.653 | 0.621 | 0.808 | 1.6 | 0.623 | 0.983 | 1.22 | 1.5
L fixed | 0.222 | 1.28 | 1.25 | 1.1 | 0.747 | 0.926 | 0.491 | 0.756 | 0.785
M fixed | 0.71 | 1.06 | 1.22 | 1.32 | 1.04 | 0.729 | 0.513 | 0.718 | 0.721
N fixed | 0.21 | 1.02 | 0.991 | 0.902 | 0.86 | 0.806 | 0.712 | 0.806 | 0.903
P fixed | 11 | 0.972 | 2.32 | 0.904 | 1.66 | 2.48 | 1.04 | 1.01 | 0.988
Q fixed | 0.265 | 0.893 | 0.88 | 0.9 | 1.12 | 0.584 | 0.73 | 0.824 | 0.851
R fixed | 0.947 | 0.77 | 0.713 | 0.811 | 1.93 | 3.56 | 5.96 | 3.05 | 2.61
V fixed | 0.448 | 1.24 | 0.706 | 0.854 | 0.672 | 0.944 | 0.373 | 0.544 | 0.599
W fixed | 0.241 | 1.02 | 0.742 | 1.06 | 0.853 | 0.723 | 0.539 | 0.865 | 0.8
Y fixed | 0.161 | 1.01 | 0.77 | 0.994 | 1.02 | 0.43 | 1.03 | 0.987 | 0.983
pThr fixed | 0.476 | 1.01 | 0.551 | 0.927 | 0.454 | 0.594 | 0.577 | 0.891 | 0.802
pTyr fixed | 0.537 | 0.813 | 0.705 | 0.961 | 0.76 | 0.433 | 0.559 | 0.672 | 0.849

HIPK2, construct: aa153-564 (from UniProt Q9H2X6)
relative phosphorylation
Settings | at +1 | at +2 | at +3 | at +4 | at -1 | at -2 | at -3 | at -4 | at -5
A fixed | 0.477 | 1.23 | 0.93 | 0.869 | 1.32 | 2.32 | 0.857 | 1.07 | 1.08
D fixed | 0.109 | 0.923 | 0.689 | 0.906 | 0.483 | 0.281 | 0.703 | 0.956 | 0.993
E fixed | 0.125 | 0.509 | 0.582 | 0.75 | 0.514 | 0.284 | 0.592 | 1 | 0.893
F fixed | 0.151 | 1.2 | 0.766 | 1.12 | 0.482 | 0.32 | 0.261 | 0.575 | 0.814
G fixed | 0.628 | 1.64 | 1.4 | 1.16 | 1.16 | 0.943 | 1.33 | 1.24 | 1.09
H fixed | 0.224 | 1.34 | 1.08 | 1.01 | 0.948 | 0.387 | 0.658 | 0.899 | 1.09
I fixed | 0.225 | 0.631 | 0.649 | 0.95 | 0.397 | 0.66 | 0.279 | 0.562 | 0.686
K fixed | 0.284 | 1.2 | 0.738 | 1.04 | 1.98 | 0.671 | 1.2 | 1.05 | 1.1
L fixed | 0.189 | 0.634 | 0.803 | 0.839 | 0.578 | 0.621 | 0.361 | 0.69 | 0.754
M fixed | 0.183 | 0.765 | 0.742 | 0.901 | 0.782 | 0.543 | 0.326 | 0.72 | 0.652
N fixed | 0.235 | 1.02 | 0.953 | 0.878 | 0.843 | 0.739 | 0.784 | 0.887 | 0.971
P fixed | 11.5 | 1.46 | 3.51 | 1.06 | 1.95 | 4.16 | 1.06 | 2.04 | 1.49
Q fixed | 0.251 | 0.766 | 0.971 | 1.11 | 1.35 | 0.569 | 0.821 | 0.977 | 0.993
R fixed | 1.6 | 1.22 | 0.914 | 0.993 | 2.33 | 2.9 | 6.74 | 2.38 | 1.72
V fixed | 0.481 | 0.722 | 0.677 | 1.01 | 0.65 | 0.949 | 0.34 | 0.574 | 0.716
W fixed | 0.161 | 0.951 | 0.852 | 1.3 | 0.624 | 0.304 | 0.348 | 0.655 | 0.782
Y fixed | 0.163 | 0.79 | 0.741 | 1.11 | 0.604 | 0.347 | 0.35 | 0.727 | 1.16
pThr fixed | 0.283 | 0.441 | 0.615 | 0.816 | 0.423 | 1.04 | 0.734 | 1.27 | 1.23
pTyr fixed | 0.251 | 0.431 | 0.989 | 1.15 | 0.614 | 0.375 | 0.628 | 1.01 | 1.19

RPS6KA2, construct: Full length (from UniProt Q15349)
relative phosphorylation
Settings | at +1 | at +2 | at +3 | at +4 | at -1 | at -2 | at -3 | at -4 | at -5
A fixed | 0.795 | 1.22 | 1.14 | 1.18 | 0.925 | 0.766 | 0.741 | 1.41 | 1.13
D fixed | 0.457 | 0.669 | 0.976 | 0.77 | 0.569 | 0.763 | 0.455 | 0.572 | 0.435
E fixed | 0.806 | 0.601 | 0.792 | 0.661 | 0.505 | 0.589 | 0.562 | 0.639 | 0.417
F fixed | 1.32 | 0.708 | 0.99 | 0.844 | 0.752 | 0.54 | 0.373 | 0.851 | 0.915
G fixed | 0.658 | 1.24 | 1.21 | 1.22 | 1.21 | 0.914 | 0.583 | 1.12 | 1.1
H fixed | 1.31 | 1.66 | 1.19 | 1.32 | 1.18 | 1.26 | 0.672 | 1.1 | 1.11
I fixed | 1.22 | 0.994 | 0.855 | 0.88 | 0.384 | 0.502 | 0.308 | 0.657 | 0.72
K fixed | 0.972 | 1.04 | 1.03 | 1.22 | 1.5 | 2.21 | 1.47 | 1.58 | 2
L fixed | 0.925 | 0.616 | 1.04 | 0.839 | 0.916 | 1.05 | 0.311 | 0.801 | 0.862
M fixed | 1.09 | 0.742 | 0.912 | 0.887 | 1.12 | 0.761 | 0.449 | 0.916 | 0.715
N fixed | 0.769 | 0.781 | 0.706 | 0.68 | 1.16 | 0.697 | 0.434 | 0.743 | 0.755
P fixed | 0.338 | 0.794 | 1.04 | 1.27 | 1.58 | 0.467 | 0.632 | 0.984 | 0.865
Q fixed | 0.925 | 0.566 | 0.717 | 0.916 | 0.861 | 0.879 | 0.603 | 0.956 | 0.702
R fixed | 0.998 | 1.82 | 1.09 | 0.886 | 1.6 | 4.34 | 8.11 | 2.03 | 3.49
V fixed | 1.75 | 1.11 | 0.92 | 0.819 | 0.683 | 0.35 | 0.365 | 0.786 | 0.713
W fixed | 1.05 | 0.973 | 1.17 | 1.44 | 0.793 | 0.409 | 0.443 | 0.954 | 0.171
Y fixed | 1.61 | 1.47 | 1.23 | 1.16 | 1.26 | 0.503 | 0.49 | 0.894 | 0.903
pThr fixed | 1 | 0.781 | 1.22 | 1.03 | 0.307 | 0.308 | 0.269 | 0.637 | 0.391
pTyr fixed | 1.55 | 1.05 | 1.25 | 0.999 | 0.657 | 0.368 | 0.555 | 0.636 | 0.526
